{"source": "paper PMC9444072", "target": "BK channel α subunit (hSloα1, human slow poke alpha subunit K+ channel) (human) (UniProt Q12791)", "assay": "native gel or EMSA; native SMA-PAGE (4-16% Tris/glycine gradient gel, 150 V, 1 h, room temperature) of Ni-NTA purified SMALPs from HEK293 membranes, followed by western blot with anti-hsloα, anti-hsloβ or anti-his antibodies; subunits co-expressed in cells and extracted together"}
{"substance": "BK channel α subunit (hSloα1, human slow poke alpha subunit K+ channel), Q12791 1-1236 (natural protein; other documents disagree on this pair)", "values": [{"measurement": "stoichiometry N", "value": 4}]}
